The target in experiment [1] is MuLV envelope protein (control pseudovirus) (MuLV). The experiment is described as follows: cell-based or functional assay.
The target in experiment [2] is HIV-1 92TH021 Env (pseudovirus) (HIV-1 isolate 92TH021 (clade AE)). The experiment in a line: cell-based or functional assay.
Experiment [3] concerns the target HIV-1 92UG005 Env (pseudovirus) (HIV-1 isolate 92UG005 (clade D)). The experiment in a line: cell-based or functional assay.
The target in experiment [4] is Endo H treated JR-FL gp120 (HIV-1). The experiment in a line: ELISA, antigen-coated wells. On the technique in general: In an ELISA, binding on a coated surface is turned into a signal by an enzyme label.
Experiment [5] addresses HIV-1 Env of pseudovirus MGRM-AG-012 (subtype AG) (HIV-1). The experiment is described as follows: cell-based or functional assay.
For experiment [6], the target named is HIV-1 Env of isolate MGRM-F1-008 (HIV-1). The experiment is described as follows: cell-based or functional assay.
The target in experiment [7] is HIV-1 Env of pseudovirus MGRM-AG-001 (subtype AG) (HIV-1). The experiment is described as follows: cell-based or functional assay.
The target of experiment [8] is HIV-1 NL43 envelope glycoprotein (Env) on pseudovirus (HIV-1 isolate NL43 (clade B)). The experiment in a line: cell-based or functional assay.
Experiment [9] addresses HIV-1 Env of isolate MGRM-F1-022 (clade F pseudovirus) (HIV-1). The experiment in a line: cell-based or functional assay.
Experiment [10] deals with HIV-1 Env of isolate MG RM-D-001 (clade D), on pseudovirus (HIV-1). The experiment in a line: cell-based or functional assay.
Experiment [11] deals with HIV-1 Env of isolate MG RM-D-018 (clade D), on pseudovirus (HIV-1). The experiment in a line: cell-based or functional assay.
Experiment [12] addresses HIV-1 Env of isolate MG RM-D-022 (clade D), on pseudovirus (HIV-1). The experiment in a line: cell-based or functional assay.
Experiment [13] has as its target HIV-1 Env of pseudovirus MGRM-A-002 (subtype A) (HIV-1). The experiment is described as follows: cell-based or functional assay.
In experiment [14] the target is HIV-1 93IN905 Env (HIV-1). The experiment in a line: cell-based or functional assay.
The next experiment deals with HIV-1 APV17 Env (HIV-1). The experiment is described as follows: cell-based or functional assay.
Experiment [15] addresses HIV-1 92TH021 Env (HIV-1). The experiment is described as follows: cell-based or functional assay.

A value given as a limit tells only on which side of the number the result lay.

1443_C16 (PG16) (TCN-116) (antibody), sequence (VH): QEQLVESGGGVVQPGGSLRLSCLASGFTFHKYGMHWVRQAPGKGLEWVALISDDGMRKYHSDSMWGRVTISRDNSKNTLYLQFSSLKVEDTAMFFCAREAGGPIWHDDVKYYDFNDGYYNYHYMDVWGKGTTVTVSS
1443_C16 (PG16) (TCN-116) (antibody), sequence (VL): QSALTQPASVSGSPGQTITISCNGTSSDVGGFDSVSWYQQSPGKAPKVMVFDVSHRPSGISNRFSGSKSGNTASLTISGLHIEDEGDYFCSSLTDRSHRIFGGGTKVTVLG

For the substance 1443_C16 (PG16) (TCN-116) (antibody), in experiment [1], the IC50 (neutralization, TZM-bl pseudovirus assay) was over 25 µg/mL.

In [2], 5123_A06 (PGT-125) (antibody) had a Neutralization by PGT-125, IC50 of 6.6 ng/mL; a Neutralization by PGT-125, IC80 of 0.0292 µg/mL; a Neutralization by PGT-125, IC90 of 0.0701 µg/mL; a Neutralization by PGT-125, IC95 of 0.157 µg/mL. In [3], this substance yielded a Neutralization by PGT-125, IC50 of over 10 µg/mL; a Neutralization by PGT-125, IC80 of over 10 µg/mL; a Neutralization by PGT-125, IC90 of over 10 µg/mL; a Neutralization by PGT-125, IC95 of over 10 µg/mL.

As to 4838_L06 (PGT-121) (antibody), the EC50 (commonly the concentration needed to bring the measured effect to its halfway point) in [4] was over 10 µg/mL.

In the case of VRC01 (antibody), the results for the IC50, pseudovirus neutralization in experiment [5] and in [7] were 0.031 µg/mL and 0.228 µg/mL, respectively. In addition, the IC50 (commonly the concentration that inhibits the measured activity by half) in [6] worked out at 1.11 µg/mL.

Substance 1496_C09 (PG9) (TCN-109) (antibody) had a neutralization IC50 in [8] of 0.687 µg/mL.

Take PGV04 (antibody): the IC50 (µg/mL), pseudovirus neutralization in experiment [9] is 0.072 µg/mL; in experiment [10], over 50 µg/mL; in [11], 17.5 µg/mL; in experiment [12], over 50 µg/mL. Besides, in [13], the IC50, pseudovirus neutralization was found to be 0.093 µg/mL.

Take 4877_D15 (PGT-122) (antibody): in experiment [14], the Neutralization by PGT-122, IC50 was 0.0138 µg/mL; the Neutralization by PGT-122, IC80 was determined as 0.0505 µg/mL; the Neutralization by PGT-122, IC90 is 0.108 µg/mL; the Neutralization by PGT-122, IC95 amounted to 0.217 µg/mL. In addition, in the experiment with HIV-1 APV17 Env (HIV-1), the Neutralization by PGT-122, IC50 worked out at 0.522 µg/mL; the Neutralization by PGT-122, IC80 amounted to 1.76 µg/mL; the Neutralization by PGT-122, IC90 was determined as 3.58 µg/mL; the Neutralization by PGT-122, IC95 was 6.92 µg/mL. Also, in experiment [15], the Neutralization by PGT-122, IC50 is over 10 µg/mL; the Neutralization by PGT-122, IC80 is over 10 µg/mL; the Neutralization by PGT-122, IC90 was over 10 µg/mL; the Neutralization by PGT-122, IC95 was over 10 µg/mL.
